Test results published in patent US6090388.
Like-named read-outs stand apart in the source and are kept apart here.

Experiments:
[1] = target: human CD4 on the surface of CD4-expressing T cells (human); assay: B4-biotin + FITC-avidin on MT2 T cells after medium alone
[2] = target: human CD4 on the surface of CD4-expressing T cells (human)
[3] = target: human CD4 on the surface of CD4-expressing T cells (human); assay: IFA on MT2 T cells
[4] = target: human CD4 on the surface of CD4-expressing T cells (human); remark: listed apart in the source
[5] = target: gp120 of HIV-1 primary isolate UG029 (clade A) (HIV-1)
[6] = target: gp120 of HIV-1 primary isolate ZIM 748 (clade C) (HIV-1)
[7] = target: gp120 of HIV-1 primary isolate UG266 (clade D) (HIV-1)
[8] = target: gp120 of HIV-1 primary isolate VL 135 (clade B) (HIV-1)
[9] = target: gp120 of HIV-1 primary isolate TH036 (clade E) (HIV-1)

| Substance | % Pos cells [1] [%] | 90% neutralization, MT-2 microplaque assay, HIV-1 DH12 (clade B) [2] [µg/mL] | 90% neutralization, MT-2 microplaque assay, HIV-1 TH036 (clade E) [2] [µg/mL] | 90% neutralization, MT-2 microplaque assay, HIV-1 UG266 (clade D) [2] [µg/mL] | 90% neutralization, MT-2 microplaque assay, HIV-1 UGO29 (clade A) [2] [µg/mL] | 90% neutralization, MT-2 microplaque assay, HIV-1 VL 135 (clade B) [2] [µg/mL] | 90% neutralization, MT-2 microplaque assay, HIV-1 ZIM 748 (clade C) [2] [µg/mL] | % Pos cells [3] [%] | % Pos cells [4] [%] | 90% neutralization, MT-2 microplaque assay, HIV-1 UGO29 [5] [µg/mL] | 90% neutralization, MT-2 microplaque assay, HIV-1 ZIM 748 [6] [µg/mL] | 90% neutralization, MT-2 microplaque assay, HIV-1 UG266 [7] [µg/mL] | 90% neutralization, MT-2 microplaque assay, HIV-1 VL 135 [8] [µg/mL] | 90% neutralization, MT-2 microplaque assay, HIV-1 TH036 [9] [µg/mL] |
| --- | --- | --- | --- | --- | --- | --- | --- | --- | --- | --- | --- | --- | --- | --- |
| monoclonal antibody B4 | > 95 | 2.1 | 3.32 | 25.6 | 6.76 | 1.54 | 2.82 | > 95 | 0 |  |  |  |  |  |
| recombinant human monoclonal antibody IgG1 b12 |  |  |  |  |  |  |  |  |  | 38.5 | > 50 | > 50 | 41.7 | > 50 |
